According to the supplement of paper PMC10065799, “High-throughput profiling of sequence recognition by tyrosine kinases and SH2 domains using bacterial peptide display” (eLife, 2023):

What was measured:
SHP2-C SH2 = assay: SH2 binding enrichment of the phosphorylated peptide, bacterial display (enrichment ratio); higher = better substrate or ligand; peptides without Tyr show the background
Grb2 SH2 = Grb2 SH2 (UniProt P62993); assay: as above
c-Src SH2 = assay: as above
EPHB2 = EPHB2 (UniProt P29323); assay: phosphorylation enrichment, bacterial display (enrichment ratio); higher = better substrate or ligand; peptides without Tyr show the background
Sequence of EPHB2 (P29323 whole entry, looked up): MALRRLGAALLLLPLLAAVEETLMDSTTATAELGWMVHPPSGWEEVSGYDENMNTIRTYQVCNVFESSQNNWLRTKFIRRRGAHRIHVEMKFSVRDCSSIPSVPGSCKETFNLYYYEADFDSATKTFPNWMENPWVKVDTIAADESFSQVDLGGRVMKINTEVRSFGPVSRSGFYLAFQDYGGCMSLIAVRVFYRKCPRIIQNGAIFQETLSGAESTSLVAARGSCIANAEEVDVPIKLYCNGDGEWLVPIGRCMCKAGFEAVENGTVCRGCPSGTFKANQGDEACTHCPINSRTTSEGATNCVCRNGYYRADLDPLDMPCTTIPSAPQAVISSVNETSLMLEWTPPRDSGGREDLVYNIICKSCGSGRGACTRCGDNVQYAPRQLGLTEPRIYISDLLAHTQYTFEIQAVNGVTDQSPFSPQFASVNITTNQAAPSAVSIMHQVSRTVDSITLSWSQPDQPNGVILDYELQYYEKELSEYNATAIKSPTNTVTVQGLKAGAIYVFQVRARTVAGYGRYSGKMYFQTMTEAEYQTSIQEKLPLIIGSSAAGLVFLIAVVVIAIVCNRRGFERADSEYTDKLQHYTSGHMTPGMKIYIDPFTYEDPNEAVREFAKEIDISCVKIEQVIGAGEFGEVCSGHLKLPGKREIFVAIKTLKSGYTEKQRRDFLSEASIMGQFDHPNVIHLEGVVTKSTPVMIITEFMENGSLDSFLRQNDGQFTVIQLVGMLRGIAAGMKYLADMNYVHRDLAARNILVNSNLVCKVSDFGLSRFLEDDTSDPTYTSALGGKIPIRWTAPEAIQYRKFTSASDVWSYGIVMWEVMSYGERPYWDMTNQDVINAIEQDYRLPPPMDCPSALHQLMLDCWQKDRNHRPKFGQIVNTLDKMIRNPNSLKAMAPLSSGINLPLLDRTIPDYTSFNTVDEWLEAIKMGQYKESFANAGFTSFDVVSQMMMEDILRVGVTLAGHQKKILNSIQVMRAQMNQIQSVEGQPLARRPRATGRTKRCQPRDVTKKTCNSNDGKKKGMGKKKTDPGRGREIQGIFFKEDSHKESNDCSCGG

AncSZ = assay: as above
FGFR3 = FGFR3 (UniProt P22607); assay: as above
MERTK = MERTK (UniProt Q12866); assay: as above
Sequence of MERTK (Q12866 whole entry, looked up): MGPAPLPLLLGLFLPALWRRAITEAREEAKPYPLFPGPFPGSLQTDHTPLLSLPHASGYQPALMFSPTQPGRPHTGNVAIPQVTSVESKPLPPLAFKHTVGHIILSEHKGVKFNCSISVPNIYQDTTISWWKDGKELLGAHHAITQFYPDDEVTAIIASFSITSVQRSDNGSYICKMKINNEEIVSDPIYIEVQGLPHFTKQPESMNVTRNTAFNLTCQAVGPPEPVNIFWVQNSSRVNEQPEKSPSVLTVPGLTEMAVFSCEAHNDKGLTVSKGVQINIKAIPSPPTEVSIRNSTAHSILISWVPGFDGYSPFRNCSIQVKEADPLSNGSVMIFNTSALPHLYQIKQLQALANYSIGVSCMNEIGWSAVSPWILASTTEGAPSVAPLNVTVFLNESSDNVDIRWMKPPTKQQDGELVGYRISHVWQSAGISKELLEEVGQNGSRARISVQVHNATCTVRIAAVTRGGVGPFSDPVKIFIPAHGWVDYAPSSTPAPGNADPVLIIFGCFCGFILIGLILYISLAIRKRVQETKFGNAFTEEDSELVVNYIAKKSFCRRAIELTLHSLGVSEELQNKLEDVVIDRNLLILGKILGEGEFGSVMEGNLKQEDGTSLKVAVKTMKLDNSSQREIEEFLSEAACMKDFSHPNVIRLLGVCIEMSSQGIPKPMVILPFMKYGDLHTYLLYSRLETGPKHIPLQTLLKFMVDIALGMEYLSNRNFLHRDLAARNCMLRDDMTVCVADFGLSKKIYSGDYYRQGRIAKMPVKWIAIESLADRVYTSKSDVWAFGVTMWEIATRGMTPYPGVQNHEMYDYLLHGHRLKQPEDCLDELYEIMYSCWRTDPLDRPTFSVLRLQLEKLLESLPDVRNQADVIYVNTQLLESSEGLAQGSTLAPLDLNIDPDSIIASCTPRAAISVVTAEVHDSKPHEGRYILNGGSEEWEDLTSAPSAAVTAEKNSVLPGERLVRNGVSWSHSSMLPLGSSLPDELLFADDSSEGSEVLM

Jak2 = Jak2 (UniProt O60674); assay: as above
Sequence of Jak2 (O60674 whole entry, looked up): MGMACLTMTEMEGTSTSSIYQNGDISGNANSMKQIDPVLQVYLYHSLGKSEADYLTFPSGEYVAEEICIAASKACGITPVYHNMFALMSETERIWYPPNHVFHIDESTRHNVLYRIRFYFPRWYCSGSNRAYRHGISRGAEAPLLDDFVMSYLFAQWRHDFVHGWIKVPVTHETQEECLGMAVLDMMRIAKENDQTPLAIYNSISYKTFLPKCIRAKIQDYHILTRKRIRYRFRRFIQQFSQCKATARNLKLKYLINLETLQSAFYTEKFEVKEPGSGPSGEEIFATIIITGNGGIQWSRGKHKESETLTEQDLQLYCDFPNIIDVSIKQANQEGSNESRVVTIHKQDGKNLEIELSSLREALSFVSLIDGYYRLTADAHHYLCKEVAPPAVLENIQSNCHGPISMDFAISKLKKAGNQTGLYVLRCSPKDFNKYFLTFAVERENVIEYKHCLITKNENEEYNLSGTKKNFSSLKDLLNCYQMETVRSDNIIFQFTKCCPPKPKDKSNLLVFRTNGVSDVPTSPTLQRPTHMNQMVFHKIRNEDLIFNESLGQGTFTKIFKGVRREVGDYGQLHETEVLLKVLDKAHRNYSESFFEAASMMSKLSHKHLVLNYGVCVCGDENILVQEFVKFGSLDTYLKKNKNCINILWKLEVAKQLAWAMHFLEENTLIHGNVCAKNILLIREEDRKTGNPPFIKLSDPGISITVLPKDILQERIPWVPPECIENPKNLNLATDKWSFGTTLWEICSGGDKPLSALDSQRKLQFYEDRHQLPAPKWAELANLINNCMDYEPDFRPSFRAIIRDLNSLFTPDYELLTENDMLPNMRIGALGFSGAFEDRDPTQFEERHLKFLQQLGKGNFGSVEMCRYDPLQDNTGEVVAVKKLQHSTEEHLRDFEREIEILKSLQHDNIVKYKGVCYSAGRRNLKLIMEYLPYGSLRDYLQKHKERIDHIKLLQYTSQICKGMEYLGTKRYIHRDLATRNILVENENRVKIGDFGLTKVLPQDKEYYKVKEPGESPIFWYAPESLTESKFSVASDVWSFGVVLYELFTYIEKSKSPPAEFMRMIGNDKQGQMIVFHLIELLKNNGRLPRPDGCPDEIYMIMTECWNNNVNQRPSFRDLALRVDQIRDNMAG

Fer (mouse) = assay: as above
Hck = Hck (UniProt P08631); assay: as above
Sequence of Hck (P08631 whole entry, looked up): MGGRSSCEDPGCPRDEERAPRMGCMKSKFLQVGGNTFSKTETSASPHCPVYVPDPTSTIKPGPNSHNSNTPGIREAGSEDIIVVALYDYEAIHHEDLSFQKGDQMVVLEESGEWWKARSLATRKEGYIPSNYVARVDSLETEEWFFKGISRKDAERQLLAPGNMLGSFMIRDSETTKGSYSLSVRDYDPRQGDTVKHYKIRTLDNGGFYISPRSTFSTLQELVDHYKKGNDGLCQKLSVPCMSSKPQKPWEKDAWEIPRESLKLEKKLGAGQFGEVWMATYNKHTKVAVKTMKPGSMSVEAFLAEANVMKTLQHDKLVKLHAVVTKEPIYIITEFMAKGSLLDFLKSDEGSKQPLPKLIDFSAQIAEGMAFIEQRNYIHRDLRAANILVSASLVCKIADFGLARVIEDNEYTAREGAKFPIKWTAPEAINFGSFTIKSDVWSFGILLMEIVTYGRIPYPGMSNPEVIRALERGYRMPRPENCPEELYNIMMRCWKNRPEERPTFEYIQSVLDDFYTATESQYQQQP

EPHB1 = EPHB1 (UniProt P54762); assay: as above
c-Src = assay: as above
Fyn = Fyn (UniProt P06241); assay: as above
Sequence of Fyn (P06241 whole entry, looked up): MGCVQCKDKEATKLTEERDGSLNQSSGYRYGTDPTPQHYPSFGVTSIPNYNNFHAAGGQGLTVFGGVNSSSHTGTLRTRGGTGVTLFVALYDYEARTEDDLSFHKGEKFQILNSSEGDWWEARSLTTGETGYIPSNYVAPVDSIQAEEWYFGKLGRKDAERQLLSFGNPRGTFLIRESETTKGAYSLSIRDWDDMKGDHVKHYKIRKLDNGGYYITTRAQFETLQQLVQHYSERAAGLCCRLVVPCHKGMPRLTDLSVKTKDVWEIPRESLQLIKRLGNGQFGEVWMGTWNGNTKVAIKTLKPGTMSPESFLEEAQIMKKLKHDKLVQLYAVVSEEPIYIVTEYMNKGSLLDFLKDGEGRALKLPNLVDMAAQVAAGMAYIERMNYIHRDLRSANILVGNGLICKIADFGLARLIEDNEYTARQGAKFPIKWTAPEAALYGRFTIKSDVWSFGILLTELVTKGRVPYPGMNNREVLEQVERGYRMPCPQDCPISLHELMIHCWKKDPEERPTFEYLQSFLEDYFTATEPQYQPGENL

FGFR1 = FGFR1 (UniProt P11362); assay: as above
Sequence of FGFR1 (P11362 whole entry, looked up): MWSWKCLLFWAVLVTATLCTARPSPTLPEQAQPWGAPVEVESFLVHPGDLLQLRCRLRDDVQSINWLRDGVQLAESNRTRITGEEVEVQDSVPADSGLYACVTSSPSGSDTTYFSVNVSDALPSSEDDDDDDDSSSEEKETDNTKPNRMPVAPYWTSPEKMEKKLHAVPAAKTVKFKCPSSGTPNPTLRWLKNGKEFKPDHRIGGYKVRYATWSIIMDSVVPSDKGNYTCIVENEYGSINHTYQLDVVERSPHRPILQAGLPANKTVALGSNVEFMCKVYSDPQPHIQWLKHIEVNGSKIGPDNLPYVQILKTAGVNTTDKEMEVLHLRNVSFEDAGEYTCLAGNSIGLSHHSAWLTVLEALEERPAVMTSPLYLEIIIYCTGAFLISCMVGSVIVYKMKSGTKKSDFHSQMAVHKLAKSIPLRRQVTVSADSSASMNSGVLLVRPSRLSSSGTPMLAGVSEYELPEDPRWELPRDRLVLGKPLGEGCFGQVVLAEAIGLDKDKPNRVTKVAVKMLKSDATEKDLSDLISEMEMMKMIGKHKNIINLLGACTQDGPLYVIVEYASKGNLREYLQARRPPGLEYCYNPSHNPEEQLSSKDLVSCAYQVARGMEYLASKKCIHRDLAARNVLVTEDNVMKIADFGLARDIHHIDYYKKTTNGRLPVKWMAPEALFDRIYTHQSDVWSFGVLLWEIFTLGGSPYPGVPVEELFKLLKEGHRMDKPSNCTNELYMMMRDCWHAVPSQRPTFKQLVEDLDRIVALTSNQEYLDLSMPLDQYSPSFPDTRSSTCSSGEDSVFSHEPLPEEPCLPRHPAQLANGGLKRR

c-Abl (mouse) = assay: as above
Fes = Fes (UniProt P07332); assay: as above
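Throughout, for SH2 binding enrichment of the phosphorylated peptide, bacterial display: peptide library displayed on the E. coli surface as eCPX fusions, selected cells deep-sequenced, score is each peptide's frequency after selection divided by its frequency in the input.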
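Throughout, for phosphorylation enrichment, bacterial display: 11-residue human phosphosite peptides and single-mutation variants displayed on the E. coli surface, counted by deep sequencing, each peptide's frequency after selection divided by its frequency in the unselected input library; frequency after pTyr selection over input frequency; kinase dosed for 20-30% of maximal phosphorylation in three min.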

Row | SH2 binding enrichment (SHP2-C SH2) | SH2 binding enrichment (Grb2 SH2) | SH2 binding enrichment (c-Src SH2) | Sequence | phosphorylation enrichment (EPHB2) | phosphorylation enrichment (AncSZ) | phosphorylation enrichment (FGFR3) | phosphorylation enrichment (MERTK) | phosphorylation enrichment (Jak2) | phosphorylation enrichment (Fer (mouse)) | phosphorylation enrichment (Hck) | phosphorylation enrichment (EPHB1) | phosphorylation enrichment (c-Src) | phosphorylation enrichment (Fyn) | phosphorylation enrichment (FGFR1) | phosphorylation enrichment (c-Abl (mouse)) | phosphorylation enrichment (Fes)
1 | 0.669 | 0.876 | 0.604 | FLTQHHDAKPQ [ANG_Y38_Y38H] | 0.381 | 0.497 | 0.451 | 0.44 | 0.464 | 0.468 | 0.353 | 0.33 | 0.396 | 0.279 | 0.447 | 0.552 | 0.742
2 | 0.8 | 0.82 | 0.572 | RNIQQCNSFVS [PRKAR1A_Y373_Y373C] | 0.634 | 1.28 | 0.662 | 0.66 | 1.4 | 0.773 | 0.711 | 0.718 | 0.707 | 0.506 | 0.501 | 0.922 | 1.18
3 | 0.565 | 1.19 | 0.476 | SSMIDYKPLEK [MYOC_Y479_N480K] | 0.421 | 0.562 | 0.425 | 0.441 | 0.495 | 0.322 | 0.413 | 0.357 | 0.384 | 0.434 | 0.377 | 0.459 | 0.538
4 | 1.24 | 1.23 | 0.496 | NLNGKCNKPRA [ANGPTL3_Y417_Y417C] | 0.41 | 0.596 | 0.446 | 0.44 | 0.435 | 0.64 | 0.347 | 0.322 | 0.393 | 0.422 | 0.39 | 0.388 | 0.558
5 | 0.57 | 0.696 | 0.952 | PLQSEYSSITT [ITGB4_Y1760] | 2.18 | 1.89 | 1.58 | 1.77 | 0.814 | 1.83 | 1.92 | 3.14 | 1.77 | 1.58 | 1.08 | 1.28 | 2.13
6 | 0.602 | 0.873 | 0.451 | VIDGKYAFKPK [GTF2E2_Y137] | 0.304 | 0.413 | 0.329 | 0.323 | 0.421 | 0.276 | 0.412 | 0.264 | 0.328 | 0.348 | 0.348 | 0.585 | 0.457
7 | 0.689 | 0.818 | 0.485 | EARRVYGDIIF [ALDH5A1_Y175_H180Y_YF] | 0.448 | 0.683 | 0.578 | 0.536 | 0.719 | 0.493 | 0.509 | 0.4 | 0.654 | 0.635 | 0.505 | 0.637 | 0.897
8 | 0.611 | 0.702 | 0.425 | SSNLYYRCLTA [CNGA3_Y169_W171C] | 0.766 | 1.05 | 1.13 | 1.89 | 1.5 | 0.571 | 0.807 | 0.563 | 0.63 | 0.493 | 0.949 | 0.896 | 1.12
9 | 1.31 | 2.63 | 2.44 | LYRYGYANTSE [SI_Y1233_C1229Y] | 0.39 | 0.806 | 0.507 | 0.36 | 0.6 | 0.32 | 0.395 | 0.437 | 0.351 | 0.383 | 0.46 | 0.511 | 0.775
10 | 0.677 | 0.891 | 0.897 | VEDQYYRVDCY [FHL1_Y208_C209R] | 0.712 | 2.93 | 6.22 | 0.94 | 1.98 | 0.598 | 0.993 | 0.711 | 1.55 | 0.892 | 7.43 | 0.958 | 1.46
11 | 0.664 | 0.827 | 0.5 | NKEAICSGFIR [SMCHD1_Y283_Y283C_YF] | 0.398 | 0.693 | 0.53 | 0.455 | 0.802 | 0.467 | 0.501 | 0.448 | 0.451 | 0.39 | 0.496 | 0.741 | 0.952
12 | 0.503 | 0.783 | 0.41 | VIKSSYQVAKA [CPT1B_Y534_E531K] | 0.414 | 0.588 | 0.428 | 0.371 | 0.406 | 0.326 | 0.391 | 0.364 | 0.458 | 0.34 | 0.391 | 0.489 | 0.749
13 | 1.05 | 0.82 | 0.546 | LYEDRYLLGTS [ASS1_Y87] | 1.23 | 0.982 | 0.95 | 0.786 | 0.894 | 4.27 | 3.73 | 3.01 | 0.837 | 1.79 | 0.702 | 0.79 | 0.981
14 | 0.556 | 0.806 | 0.419 | SNFRAYATEPQ [TNNI3_Y29_H34Q_YF] | 0.408 | 0.577 | 0.494 | 0.477 | 0.565 | 0.442 | 0.518 | 0.468 | 0.346 | 0.427 | 0.355 | 0.585 | 0.869
15 | 0.583 | 0.685 | 0.44 | KVGPGYLGSGG [RET_Y826] | 0.377 | 0.438 | 0.392 | 0.423 | 0.457 | 0.365 | 0.315 | 0.287 | 0.368 | 0.42 | 0.334 | 0.399 | 0.451
16 | 0.907 | 0.922 | 0.575 | IVLEKYKLLPE [DHFR_Y157_D153V] | 0.638 | 0.843 | 0.752 | 0.386 | 0.809 | 0.45 | 0.458 | 0.53 | 0.346 | 0.453 | 0.596 | 0.676 | 1.07
17 | 0.707 | 0.982 | 0.422 | GPRKAYELSQR [SETX_Y1297] | 0.328 | 0.464 | 0.355 | 0.409 | 0.558 | 0.381 | 0.389 | 0.343 | 0.412 | 0.401 | 0.422 | 0.492 | 0.539
18 | 0.675 | 1.02 | 0.441 | RQNRFYDAKVR [FKBP6_Y188] | 0.432 | 0.687 | 0.496 | 0.672 | 0.81 | 0.605 | 0.606 | 0.226 | 1.18 | 0.427 | 0.506 | 0.658 | 0.715
19 | 0.678 | 0.699 | 0.661 | LIDGFYRLTED [JAK2_Y373_A377E_YF] | 0.89 | 1.31 | 0.747 | 0.549 | 1.11 | 0.613 | 0.552 | 0.586 | 0.895 | 0.66 | 0.537 | 0.974 | 1.54
20 | 0.583 | 0.788 | 0.522 | GDPTEYFSTAI [IGSF22_Y501_YF] | 0.645 | 1.54 | 0.936 | 0.439 | 1.15 | 0.433 | 0.498 | 0.634 | 0.502 | 0.525 | 0.7 | 0.745 | 1.08
21 | 0.617 | 0.865 | 0.448 | SVTCTYPPALN [TP53_Y126_S127P] | 0.578 | 0.886 | 0.578 | 0.477 | 1.07 | 0.473 | 0.557 | 0.471 | 0.485 | 0.448 | 0.502 | 0.97 | 0.873
22 | 0.262 | 0.906 | 0.378 | RRIHSHRGHLW [VHL_Y112_Y112H] | 0.732 | 0.918 | 0.701 | 0.621 | 0.659 | 0.689 | 0.737 | 0.773 | 0.828 | 0.604 | 0.558 | 0.909 | 1.01
23 | 1.24 | 0.794 | 0.761 | TAGFIYEKWEI [TEC_Y360_S359I] | 1.45 | 1.45 | 0.804 | 4.47 | 1.24 | 11.6 | 3.79 | 1.35 | 4.11 | 2.78 | 0.474 | 1.12 | 1.72
24 | 1.12 | 1.12 | 0.888 | LSVISYDLGMF [GBA3_Y174_M172I] | 0.72 | 1.2 | 0.581 | 0.424 | 1.21 | 0.415 | 0.481 | 0.742 | 0.586 | 0.436 | 0.328 | 0.961 | 1.27
25 | 0.803 | 0.781 | 0.4 | KQELVYTNKKL [OPTN_Y356] | 0.561 | 0.69 | 0.474 | 0.594 | 0.791 | 0.571 | 0.734 | 0.496 | 0.836 | 0.441 | 0.47 | 0.759 | 0.675
26 | 0.599 | 0.86 | 0.485 | EVESPYEVHDY [GIGYF2_Y1168] | 0.84 | 1.66 | 0.792 | 0.567 | 1.03 | 9.16 | 1.13 | 0.785 | 4.25 | 4.95 | 0.489 | 0.762 | 1.1
27 | 0.964 | 0.974 | 0.676 | TYGQVYKGRHV [TNIK_Y40] | 0.506 | 0.484 | 0.533 | 0.942 | 0.482 | 0.528 | 6.44 | 0.507 | 6.62 | 8.37 | 0.493 | 0.711 | 0.488
28 | 1.61 | 1.26 | 1.25 | LAARFYNWVSF [FLT4_Y1231_YF] | 0.605 | 1.44 | 1.56 | 1.02 | 1.1 | 2.55 | 0.476 | 0.69 | 0.82 | 0.51 | 1.27 | 0.988 | 1.55
29 | 0.734 | 0.897 | 0.631 | KLSCSYSHLSA [C4BPA_Y470_W473L] | 0.588 | 1.15 | 0.742 | 0.58 | 1.06 | 0.55 | 0.513 | 0.535 | 0.584 | 0.572 | 0.574 | 0.782 | 1.21
